Drawing on article PMC5041073, this text covers Kd and stoichiometry N for one substance.

This assay addresses Dbf4(5)Rad53 chimera (Dbf4-SGASG-Rad53) (S. cerevisiae) (UniProt P32325). Nature of the assay: AUC; sedimentation velocity, 50,000 rpm, 20 °C, 2 to 310 μM, 0.2 M NaCl, 0.02 M TRIS-HCl pH 8.0, 1.4 mM 2-mercaptoethanol, 5% v/v glycerol; weighted-average s isotherm fitted to a reversible monomer-dimer equilibrium; dimer to monomers.

As to “Dbf4(5)Rad53 chimera (Dbf4-SGASG-Rad53) (from UniProt P32325 105-220; P22216 22-162)”, the Kd – broadly, the concentration at which binding is half-saturated – turned out to be 130 µM and the stoichiometry N (in general, the number of molecules, sites or subunits per partner or assembly) stood at 2.
